Assay results taken from publication PMC10786891, “Massively parallel profiling of RNA-targeting CRISPR-Cas13d”.

T1: EsCas13d, nuclease-dead (Eubacterium siraeum, UniProt B0MS50, R295A;H300A;R849A;H854A)
T1 sequence: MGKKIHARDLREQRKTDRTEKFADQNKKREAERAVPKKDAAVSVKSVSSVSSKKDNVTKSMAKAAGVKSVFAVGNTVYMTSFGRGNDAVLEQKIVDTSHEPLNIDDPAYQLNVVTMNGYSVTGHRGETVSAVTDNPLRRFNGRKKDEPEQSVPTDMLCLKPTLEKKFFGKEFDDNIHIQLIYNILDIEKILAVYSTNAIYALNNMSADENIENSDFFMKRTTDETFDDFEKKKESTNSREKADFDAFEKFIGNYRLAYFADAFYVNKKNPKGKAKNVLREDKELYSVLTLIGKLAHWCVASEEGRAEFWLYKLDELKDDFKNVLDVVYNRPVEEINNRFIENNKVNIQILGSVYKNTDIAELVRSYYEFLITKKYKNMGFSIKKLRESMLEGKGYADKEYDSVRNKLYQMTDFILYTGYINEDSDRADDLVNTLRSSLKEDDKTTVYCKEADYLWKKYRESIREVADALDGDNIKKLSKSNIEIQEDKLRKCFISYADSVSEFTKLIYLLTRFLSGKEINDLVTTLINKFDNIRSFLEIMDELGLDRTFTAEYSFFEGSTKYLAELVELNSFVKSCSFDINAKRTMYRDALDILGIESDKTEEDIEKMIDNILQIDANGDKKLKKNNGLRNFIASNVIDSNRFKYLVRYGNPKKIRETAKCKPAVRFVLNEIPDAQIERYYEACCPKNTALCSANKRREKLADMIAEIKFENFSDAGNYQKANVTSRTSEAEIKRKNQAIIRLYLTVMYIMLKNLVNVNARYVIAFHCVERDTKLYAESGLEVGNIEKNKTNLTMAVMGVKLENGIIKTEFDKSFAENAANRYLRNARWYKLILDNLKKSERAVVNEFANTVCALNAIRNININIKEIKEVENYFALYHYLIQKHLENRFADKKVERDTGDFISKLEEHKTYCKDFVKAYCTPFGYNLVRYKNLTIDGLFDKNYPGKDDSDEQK

B1: target 3 insA 3' of 7,insA 3' of 7 (mixed)
RNA 1: CACCCGUGCAAAAUUGCAGGGGUCUAAAACGACCUGAAUAUUUCAGAUCAAA
RNA 2: GGGAAUGGAUCCACAUCUACGAAUUCGUUUUUGAUCUGAAAUAUUAACAGGUCUGCAGAUCGGAAGAGCACACGU
B2: target 3 insA 3' of 2,insG 3' of 2 (mixed)
RNA 1: CACCCGUGCAAAAUUGCAGGGGUCUAAAACGACCUGAAUAUUUCAGAUCAAA
RNA 2: GGGAAUGGAUCCACAUCUACGAAUUCGUUUUUGAUCUGAAAUAUUCAGGUAGCUGCAGAUCGGAAGAGCACACGU
B3: target 3 insU 3' of 5,insC 3' of 5 (mixed)
RNA 1: CACCCGUGCAAAAUUGCAGGGGUCUAAAACGACCUGAAUAUUUCAGAUCAAA
RNA 2: GGGAAUGGAUCCACAUCUACGAAUUCGUUUUUGAUCUGAAAUAUUCAUCGGUCUGCAGAUCGGAAGAGCACACGU
B4: target 3 A5G,C6G (mixed)
RNA 1: CACCCGUGCAAAAUUGCAGGGGUCUAAAACGACCUGAAUAUUUCAGAUCAAA
RNA 2: GGGAAUGGAUCCACAUCUACGAAUUCGUUUUUGAUCUGAAAUAUUGGGGUCUGCAGAUCGGAAGAGCACACGU
B5: target 3 G3C,U7G (mixed)
RNA 1: CACCCGUGCAAAAUUGCAGGGGUCUAAAACGACCUGAAUAUUUCAGAUCAAA
RNA 2: GGGAAUGGAUCCACAUCUACGAAUUCGUUUUUGAUCUGAAAUAUGCAGCUCUGCAGAUCGGAAGAGCACACGU
B6: target 3 insA 3' of 22,insU 3' of 6 (mixed)
RNA 1: CACCCGUGCAAAAUUGCAGGGGUCUAAAACGACCUGAAUAUUUCAGAUCAAA
RNA 2: GGGAAUGGAUCCACAUCUACGAAUUCGUUUAUUGAUCUGAAAUAUUCUAGGUCUGCAGAUCGGAAGAGCACACGU
B7: target 1 A16C,C21U (mixed)
RNA 1: CACCCGUGCAAAAAUGCAGGGGUCUAAAACUGAGCGGAUAACCUCUCUAUGG
RNA 2: GGGAAUGGAUCCACAUCUACGAAUUCGUACUAUAGCGAGGUUAUCCGCUCACCGAGAUCGGAAGAGCACACGU
B8: target 3 C6A,U22A (mixed)
RNA 1: CACCCGUGCAAAAUUGCAGGGGUCUAAAACGACCUGAAUAUUUCAGAUCAAA
RNA 2: GGGAAUGGAUCCACAUCUACGAAUUCGUUAUUGAUCUGAAAUAUUAAGGUCUGCAGAUCGGAAGAGCACACGU
B9: target 3 insG 3' of 2,insG 3' of 1 (mixed)
RNA 1: CACCCGUGCAAAAUUGCAGGGGUCUAAAACGACCUGAAUAUUUCAGAUCAAA
RNA 2: GGGAAUGGAUCCACAUCUACGAAUUCGUUUUUGAUCUGAAAUAUUCAGGUGCGUGCAGAUCGGAAGAGCACACGU
B10: target 3 insU 3' of 13,insC 3' of 3 (mixed)
RNA 1: CACCCGUGCAAAAUUGCAGGGGUCUAAAACGACCUGAAUAUUUCAGAUCAAA
RNA 2: GGGAAUGGAUCCACAUCUACGAAUUCGUUUUUGAUCUGAUAAUAUUCAGGCUCUGCAGAUCGGAAGAGCACACGU
B11: target 3 insC 3' of 7,insC 3' of 4 (mixed)
RNA 1: CACCCGUGCAAAAUUGCAGGGGUCUAAAACGACCUGAAUAUUUCAGAUCAAA
RNA 2: GGGAAUGGAUCCACAUCUACGAAUUCGUUUUUGAUCUGAAAUAUUCCAGCGUCUGCAGAUCGGAAGAGCACACGU
B12: target 3 insC 3' of 22,insG 3' of 22 (mixed)
RNA 1: CACCCGUGCAAAAUUGCAGGGGUCUAAAACGACCUGAAUAUUUCAGAUCAAA
RNA 2: GGGAAUGGAUCCACAUCUACGAAUUCGUUUCGUUGAUCUGAAAUAUUCAGGUCUGCAGAUCGGAAGAGCACACGU
B13: target 3 C1U,U21A (mixed)
RNA 1: CACCCGUGCAAAAUUGCAGGGGUCUAAAACGACCUGAAUAUUUCAGAUCAAA
RNA 2: GGGAAUGGAUCCACAUCUACGAAUUCGUUUAUGAUCUGAAAUAUUCAGGUUUGCAGAUCGGAAGAGCACACGU
B14: target 3 insA 3' of 10,insC 3' of 8 (mixed)
RNA 1: CACCCGUGCAAAAUUGCAGGGGUCUAAAACGACCUGAAUAUUUCAGAUCAAA
RNA 2: GGGAAUGGAUCCACAUCUACGAAUUCGUUUUUGAUCUGAAAUAAUCUCAGGUCUGCAGAUCGGAAGAGCACACGU
B15: target 3 U7G,U8C (mixed)
RNA 1: CACCCGUGCAAAAUUGCAGGGGUCUAAAACGACCUGAAUAUUUCAGAUCAAA
RNA 2: GGGAAUGGAUCCACAUCUACGAAUUCGUUUUUGAUCUGAAAUACGCAGGUCUGCAGAUCGGAAGAGCACACGU
B16: target 3 G3U,A9G (mixed)
RNA 1: CACCCGUGCAAAAUUGCAGGGGUCUAAAACGACCUGAAUAUUUCAGAUCAAA
RNA 2: GGGAAUGGAUCCACAUCUACGAAUUCGUUUUUGAUCUGAAAUGUUCAGUUCUGCAGAUCGGAAGAGCACACGU
B17: target 3 G4U (mixed)
RNA 1: CACCCGUGCAAAAUUGCAGGGGUCUAAAACGACCUGAAUAUUUCAGAUCAAA
RNA 2: GGGAAUGGAUCCACAUCUACGAAUUCGUUUUUGAUCUGAAAUAUUCAUGUCUGCAGAUCGGAAGAGCACACGU
B18: target 1 A1G,U3C (mixed)
RNA 1: CACCCGUGCAAAAAUGCAGGGGUCUAAAACUGAGCGGAUAACCUCUCUAUGG
RNA 2: GGGAAUGGAUCCACAUCUACGAAUUCGUACCAUAGAGAGGUUAUCCGCCCGCCGAGAUCGGAAGAGCACACGU
B19: target 3 del4 (mixed)
RNA 1: CACCCGUGCAAAAUUGCAGGGGUCUAAAACGACCUGAAUAUUUCAGAUCAAA
RNA 2: GGGAAUGGAUCCACAUCUACGAAUUCGUUUUUGAUCUGAAAUAUUCAGUCUGCAGAUCGGAAGAGCACACGU
B20: target 3 G19U,U21A (mixed)
RNA 1: CACCCGUGCAAAAUUGCAGGGGUCUAAAACGACCUGAAUAUUUCAGAUCAAA
RNA 2: GGGAAUGGAUCCACAUCUACGAAUUCGUUUAUUAUCUGAAAUAUUCAGGUCUGCAGAUCGGAAGAGCACACGU
B21: target 3 C1A,G3A (mixed)
RNA 1: CACCCGUGCAAAAUUGCAGGGGUCUAAAACGACCUGAAUAUUUCAGAUCAAA
RNA 2: GGGAAUGGAUCCACAUCUACGAAUUCGUUUUUGAUCUGAAAUAUUCAGAUAUGCAGAUCGGAAGAGCACACGU
B22: target 3 C6G,U8G (mixed)
RNA 1: CACCCGUGCAAAAUUGCAGGGGUCUAAAACGACCUGAAUAUUUCAGAUCAAA
RNA 2: GGGAAUGGAUCCACAUCUACGAAUUCGUUUUUGAUCUGAAAUAGUGAGGUCUGCAGAUCGGAAGAGCACACGU
B23: target 3 insA 3' of 22,insG 3' of 8 (mixed)
RNA 1: CACCCGUGCAAAAUUGCAGGGGUCUAAAACGACCUGAAUAUUUCAGAUCAAA
RNA 2: GGGAAUGGAUCCACAUCUACGAAUUCGUUUAUUGAUCUGAAAUAUGUCAGGUCUGCAGAUCGGAAGAGCACACGU
B24: target 3 C6G,A18G (mixed)
RNA 1: CACCCGUGCAAAAUUGCAGGGGUCUAAAACGACCUGAAUAUUUCAGAUCAAA
RNA 2: GGGAAUGGAUCCACAUCUACGAAUUCGUUUUUGGUCUGAAAUAUUGAGGUCUGCAGAUCGGAAGAGCACACGU
B25: target 3 G3A (mixed)
RNA 1: CACCCGUGCAAAAUUGCAGGGGUCUAAAACGACCUGAAUAUUUCAGAUCAAA
RNA 2: GGGAAUGGAUCCACAUCUACGAAUUCGUUUUUGAUCUGAAAUAUUCAGAUCUGCAGAUCGGAAGAGCACACGU
B26: target 3 insC 3' of 8,insA 3' of 6 (mixed)
RNA 1: CACCCGUGCAAAAUUGCAGGGGUCUAAAACGACCUGAAUAUUUCAGAUCAAA
RNA 2: GGGAAUGGAUCCACAUCUACGAAUUCGUUUUUGAUCUGAAAUAUCUCAAGGUCUGCAGAUCGGAAGAGCACACGU
B27: target 1 insG 3' of 16,insG 3' of 9 (mixed)
RNA 1: CACCCGUGCAAAAAUGCAGGGGUCUAAAACUGAGCGGAUAACCUCUCUAUGG
RNA 2: GGGAAUGGAUCCACAUCUACGAAUUCGUACCAUAGAGGAGGUUAGUCCGCUCACCGAGAUCGGAAGAGCACACGU
B28: target 1 C6A,A20C (mixed)
RNA 1: CACCCGUGCAAAAAUGCAGGGGUCUAAAACUGAGCGGAUAACCUCUCUAUGG
RNA 2: GGGAAUGGAUCCACAUCUACGAAUUCGUACCCUAGAGAGGUUAUCAGCUCACCGAGAUCGGAAGAGCACACGU

The binders below were run against T1, EsCas13d, nuclease-dead (assay: crRNA (strand 1, pre-loaded); Mg2+; 40 mM Tris-HCl pH 7.5, 150 mM NaCl, 6 mM MgCl2, 1 mM DTT, 0.1% Tween-20, 0.2 mg/ml BSA; 25 C; 10 min per concentration, then washed). Details: tags: His6-TwinStrep-SUMO cleaved; N-terminal SNAP kept (SNAP-Surface 488); label: 3' end held by stalled T7 RNA polymerase.

Point of comparison: B25, Kd 46 ± 11.5 nM. Against it:
- B1 — within error, 38 ± 5.5 nM
- B2 — 2.2-fold lower, 20.9 ± 2.15 nM
- B3 — 7-fold lower, 6.59 ± 0.54 nM
- B4 — 2.3-fold lower, 20.4 ± 1.75 nM
- B5 — within error, 60 ± 7.5 nM
- B6 — within error, 32.5 ± 5.5 nM
- B7 — 5.4-fold lower, 8.5 ± 0.6 nM
- B8 — within error, 59.5 ± 6.5 nM
- B9 — 1.8-fold lower, 25.6 ± 4.25 nM
- B10 — 1.9-fold higher, 86.5 ± 19.5 nM
- B11 — 1.6-fold higher, 74.5 ± 15 nM
- B12 — within error, 65.5 ± 21.5 nM
- B13 — 1.8-fold higher, 84 ± 26 nM
- B14 — 2.2-fold higher, 102 ± 37 nM
- B15 — 1.5-fold higher, 70 ± 11 nM
- B16 — within error, 67.5 ± 12 nM
- B17 — 11-fold lower, 4.25 ± 0.335 nM
- B18 — within error, 35 ± 7 nM
- B19 — 1.9-fold lower, 23.6 ± 3 nM
- B20 — 2.2-fold higher, 99.5 ± 14.5 nM
- B21 — within error, 37.5 ± 13.5 nM
- B22 — within error, 64 ± 8.5 nM
- B23 — 2-fold higher, ~90 nM
- B24 — within error, 47 ± 9.5 nM
- B26 — 1.5-fold higher, 71 ± 10.5 nM
- B27 — within error, 31 ± 4 nM
- B28 — within error, 38 ± 4 nM
